B1: Serine/threonine-protein kinase STE20 (Saccharomyces cerevisiae), Q03497 (parent)
chain: MSNDPSAVSELPDKDSLDNGISNDNERAMGGNGDGGDGLRLPRTTGTLNVNALQKGTNAAHEAGGYKSMDPAKNAETTNDDDNNVVSLDDPIQFTRVSSSSVISGMSSSMSPHSNIDETKSLEAVTPNINTSNITPDHSADNTFSTINASESDHQFNDTLLSKLSLTDSTETIENNATVKHQQPVASSTVNSNKSSTDIRRATPVSTPVISKPSMTTTPRQINSASHSLSNPKHKQHKPKVKPSKPEAKSKPVSVKKSFPSKNPLKNSSPPKKQTEKSYYSSSSKKRKSGSNSGTLRMKDVFTSFVQNIKRNSQDDKRASSSSNNSSSSSITTALRISTPYNAKHIHHVGVDSKTGEYTGLPEEWEKLLTSSGISKREQQQNMQAVMDIVKFYQDVTETNGEDKMFKTFNTTTGLPGSPQVSTPPANSFNKFPPSTSDSHNYGSRTGTPMSNHVMSPTLNTDSSSANGKFIPSRPAPKPPSSASASAPIIKSPVMNSAANVSPLKQTHAPTTPNRTSPNRSSISRNATLKKEEQPLPPIPPTKSKTSPIISTAHTPQQVAQSPKAPAQETVTTPTSKPAQARSLSKELNEKKREERERRKKQLYAKLNEICSDGDPSTKYANLVKIGQGASGGVYTAYEIGTNVSVAIKQMNLEKQPKKELIINEILVMKGSKHPNIVNFIDSYVLKGDLWVIMEYMEGGSLTDVVTHCILTEGQIGAVCRETLSGLEFLHSKGVLHRDIKSDNILLSMEGDIKLTDFGFCAQINELNLKRTTMVGTPYWMAPEVVSRKEYGPKVDIWSLGIMIIEMIEGEPPYLNETPLRALYLIATNGTPKLKEPENLSSSLKKFLDWCLCVEPEDRASATELLHDEYITEIAEANSSLAPLVKLARLKKVAENMDADEDNDDDNDNEHINKTNNCDDNNDSKETVNLDVTEDDKQK

Variants of: B1
Settings: with cdc42_yeast CDC42, P19073
Chain of cdc42_yeast CDC42, P19073 (P19073 whole entry): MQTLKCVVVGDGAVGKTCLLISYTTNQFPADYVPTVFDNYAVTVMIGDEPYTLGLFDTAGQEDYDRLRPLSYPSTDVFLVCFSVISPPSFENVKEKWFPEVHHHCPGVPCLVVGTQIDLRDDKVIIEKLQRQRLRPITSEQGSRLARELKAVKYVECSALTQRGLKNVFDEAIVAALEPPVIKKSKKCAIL

effect of a mutation on the interaction	Variant
decreasing interaction	S338A;H345G

— IntAct's records for PubMed 11940652
